Source: patent US20130209454A1 (CALIFORNIA INSTITUTE OF TECHNOLOGY, published 2013)
Positions count from the first letter of the chain named. Where two headings read alike, the source gives them in different places.

B1: NIH45-46 Δ99a-99d IgG (antibody, V domains shown)
VH: QVRLSQSGGQMKKPGESMRLSCRASGYEFLNCPINWIRLAPGRRPEWMGWLKPRGGAVNYARKFQGRVTMTRDVYSDTAFLELRSLTSDDTAVYFCTRGKYCTYNWDFEHWGRGAPVTVSS
VL: EIVLTQSPATLSLSPGETAIISCRTSQSGSLAWYQQRPGQAPRLVIYSGSTRAAGIPDRFSGSRWGADYNLSISNLESGDFGVYYCQQYEFFGQGTKVQVDI
B2: NIH45-46 heavy chain paired with the VRC01 light chain (IgG) (antibody, V domains shown)
VH: QVRLSQSGGQMKKPGESMRLSCRASGYEFLNCPINWIRLAPGRRPEWMGWLKPRGGAVNYARKFQGRVTMTRDVYSDTAFLELRSLTSDDTAVYFCTRGKYCTARDYYNWDFEHWGRGAPVTVSS
VL: B1 VL with A9G, S28Y, A67P, S72T
B3: 3BNC60 IgG (antibody, V domains shown)
VH: QVHLSQSGAAVTKPGASVRVSCEASGYKISDHFIHWWRQAPGQGLQWVGWINPKTGQPNNPRQFQGRVSLTRQASWDFDTYSFYMDLKAVRSDDTAIYFCARQRSDFWDFDVWGSGTQVTVSS
VL: DIQMTQSPSSLSARVGDTVTITCQANGYLNWYQQRRGKAPKLLIYDGSKLERGVPARFSGRRWGQEYNLTINNLQPEDVATYFCQVYEFIVPGTRLDLKRTVA
B4: 3BNC117 IgG (antibody, V domains shown)
VH: B3 VH with H3Q, S5L, K28N, S30R, H32Y, Q73H, Y81F, V90L, I97V, F107Y
VL: B3 VL with R14S, A56S, V79I, I90V
B5: 12A12 IgG (antibody, V domains shown)
VH: SQHLVQSGTQVKKPGASVRISCQASGYSFTDYVLHWWRQAPGQGLEWMGWIKPVYGARNYARRFQGRINFDRDIYREIAFMDLSGLRSDDTALYFCARDGSGDDTSWHLDPWGQGTLVIVSA
VL: DIQMTQSPSSLSASVGDRVTITCQAGQGIGSSLQWYQQKPGKAPKLLVHGASNLHRGVPSRFSGSGFHTTFSLTISGLQRDDFATYFCAVLEFFGPGTKVEIKR
B6: 3BNC55 IgG (antibody, V domains shown)
VH: QVQLVQSGTAVKRPGASVRVSCQASGYTFTDYFIYWWRQAPGQGLEWLGWINPLTSQPSYPSRFQGRLTLTRDTFDEMLYMDLRGLRSDDTGIYFCARRHSDYCDFDIWGSGTQIIVSS
VL: DIQMTQSPSSLSASVGDKVTITCQTSAGYLNWYQQRRGRAPKLLMYDGSRLVTGVPSRFSGRRWGTQYNLTIGSLQPEDIATYYCQVYEFFGPGTRLDLKS

What was measured:
Assay in all cases: cell-based or functional assay
[1] = biological target: HIV-1 Env of strain T257-31 (HIV-1)
[2] = biological target: HIV-1 Env of strain SC422661.8 (HIV-1)
[3] = biological target: HIV-1 Env of strain ZM214M.PL15 (HIV-1)
[4] = biological target: HIV-1 Env of strain AC10.0.29 (HIV-1)
[5] = biological target: HIV-1 Env of strain QH0692.42 (HIV-1)
[6] = biological target: HIV-1 Env of strain TRO.11 (HIV-1)
[7] = biological target: HIV-1 Env of strain CAP45.2.00.G3 (HIV-1)
[8] = biological target: HIV-1 strain ZM214M.PL15 envelope (gp120) (HIV-1)
[9] = biological target: HIV-1 strain SC422661.8 envelope (gp120) (HIV-1)
[10] = biological target: HIV-1 strain TRO.11 envelope (gp120) (HIV-1)
[11] = biological target: HIV-1 strain T257-31 envelope (gp120) (HIV-1)
[12] = biological target: HIV-1 strain CAP45.2.00.G3 envelope (gp120) (HIV-1)
[13] = biological target: HIV-1 strain QH0692.42 envelope (gp120) (HIV-1)
[14] = biological target: HIV-1 strain AC10.0.29 envelope (gp120) (HIV-1)
[15] = biological target: HIV-1 strain SC422661.8 envelope (gp120) (HIV-1); remark: listed apart in the source
[16] = biological target: HIV-1 strain CAP210.2.00.E8 envelope (gp120) (HIV-1)
[17] = biological target: HIV-1 strain TRO.11 envelope (gp120) (HIV-1); remark: listed apart in the source
[18] = biological target: HIV-1 strain CAP45.2.00.G3 envelope (gp120) (HIV-1); remark: listed apart in the source
[19] = biological target: HIV-1 strain Du172.17 envelope (gp120) (HIV-1)
[20] = biological target: HIV-1 strain AC10.0.29 envelope (gp120) (HIV-1); remark: listed apart in the source

Row | Binder | neutralization IC50 [15] [µg/mL] | neutralization IC50 [16] [µg/mL] | neutralization IC50 [17] [µg/mL] | neutralization IC50 [18] [µg/mL] | neutralization IC50 [19] [µg/mL] | neutralization IC50 [20] [µg/mL] | also measured
1 | B1 |  |  |  |  |  |  | neutralization IC50 [1]: 7 µg/mL; neutralization IC50 [2]: 1.4 µg/mL; neutralization IC50 [3]: 2.2 µg/mL; neutralization IC50 [4]: 13 µg/mL; neutralization IC50 [5]: 3.7 µg/mL; neutralization IC50 [6]: > 50 µg/mL; neutralization IC50 [7]: > 50 µg/mL
2 | B2 |  |  |  |  |  |  | neutralization IC50 [8]: 0.6 µg/mL; neutralization IC50 [9]: 0.2 µg/mL; neutralization IC50 [10]: 0.3 µg/mL; neutralization IC50 [11]: 0.6 µg/mL; neutralization IC50 [12]: 2.1 µg/mL; neutralization IC50 [13]: 0.9 µg/mL; neutralization IC50 [14]: 1 µg/mL
3 | B3 | 0.1 | 4.7 | 0.07 | 10 | 0.05 | 13 | 
4 | B4 | 0.07 | 11 | 0.6 | 16 | 0.04 | 6.5 | 
5 | B5 | 0.2 | > 50 | 0.3 | 0.4 | 0.2 | 0.6 | 
6 | B6 | 0.3 | > 50 | 7.6 | > 50 | 2 | > 50 | 
